Results on 22 sequences are retold here after the supplement of paper PMC9170038.

In the data set the test system is K4 kissing-loop RNA reporter. Nature of the data set: apparent KD of K4 kissing-loop reporter; higher = weaker reporter binding. The settings on record: Eterna round: R107. As for the experimental part:
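RNA-MaP round R107: designed RNA switches with theophylline, tryptophan, arginine or FMN aptamers are transcribed on-chip within common flanks. They are titrated with a labelled K4 kissing-loop RNA reporter in RNA-MaP buffer (100 mM Tris pH 7.5, 80 mM KCl, 4 mM MgCl2), without ligand or with the indicated ligand. Median apparent KD per design.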

The mark [1] stands for this setting: input ligand: theophylline 20 uM.
Where [2] appears, read: input ligand: tryptophan 2.4 mM.
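Also: bound reporter read as fluorescence of individual clusters on recovered sequencing chips by microscopy, with normalized cluster intensities fitted with a binding model.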

Consider “GUGGUGGUGGCGGCCGCCACUGAAGAUAAUGAGUGAUGUUCAAGUGAUGUUAAUAAGAACAGUAUCAGGACCGGGCCACCACCAC [Default title]”, for which the “apparent KD of K4 kissing-loop reporter” value (input ligand: FMN 200 uM) was 0.0375 µM; the “apparent KD of K4 kissing-loop reporter” value (input ligand: arginine 13.2 mM) was 0.0277 µM; the “apparent KD of K4 kissing-loop reporter” value (input ligand: none) stood at 0.0341 µM; the “apparent KD of K4 kissing-loop reporter” value under setting [1] amounted to 0.0254 µM; the “apparent KD of K4 kissing-loop reporter” value under setting [2] was determined as 0.0338 µM.
With “GUUACGCAUGGAAGGAGCGCACUCCGAUUGGACGACACAGUGAUGUUGUGGUUCGUUCGAAUGCAGGUAGGUCGCCAUGUGUAAC [Ex Arginine B K4 19]”, the “apparent KD of K4 kissing-loop reporter” value runs as follows: (input ligand: FMN 200 uM) 0.159 µM; (input ligand: arginine 13.2 mM) 0.148 µM; (input ligand: none) 0.15 µM; under setting [1], 0.134 µM; under setting [2], 0.148 µM.
On to “GUUACGCAUGGAAGGAGCGCGAAAAUUUAUAGUGAGUGAUGUUCACAAAUAAGAAUAAUAACGCAGGUAGGUCGCCAUGUGUAAC [Ex Arginine B K4 5]”, for which the “apparent KD of K4 kissing-loop reporter” value was 0.0871 µM (input ligand: FMN 200 uM); 0.0868 µM (input ligand: arginine 13.2 mM); 0.105 µM (input ligand: none); 0.118 µM under setting [1]; 0.0952 µM under setting [2].
Turning to “GUUAUGGACCUUUUGAUCGUUCGUAGCGAUACCAGACAAUGGGCAGUCCCUUGGCAGCGCUAAUUGAGUGAUGUUCAAACGUGCA [theeternabot_exclusion_KL_Theo_A_46]”, the “apparent KD of K4 kissing-loop reporter” value came to 0.73 µM (input ligand: FMN 200 uM); 0.309 µM (input ligand: arginine 13.2 mM); 0.68 µM (input ligand: none); 0.331 µM under setting [1]; 0.364 µM under setting [2].
For the sequence “UAACUGCAGUGAUGUUGCAGAUGUCCUGACUAGGAUAUCAGGAAACUGAGAAGGAGUCCCUUCUACACUGCAGAGAAGGAGGACA [[K1]-[K2]-[F1]'-[F1]-[F2]-[F2]'-[K]'-[F]''_Design1]”, the “apparent KD of K4 kissing-loop reporter” value is, setting by setting: (input ligand: FMN 200 uM) 0.283 µM; (input ligand: arginine 13.2 mM) 0.125 µM; (input ligand: none) 0.145 µM; under setting [1], 0.125 µM; under setting [2], 0.139 µM.
Regarding “UAACUUGCAGUGAUGUUGCAAGAACUGGAUACCAGCAUGGAAACAUGCCCUUGGCAGCCAGAAGGUAUCCUACAUCACAGAUACU [Design2]”, the “apparent KD of K4 kissing-loop reporter” value (input ligand: FMN 200 uM) came out at 0.22 µM; the “apparent KD of K4 kissing-loop reporter” value (input ligand: arginine 13.2 mM) was determined as 0.202 µM; the “apparent KD of K4 kissing-loop reporter” value (input ligand: none) was found to be 0.214 µM; the “apparent KD of K4 kissing-loop reporter” value under setting [1] was 0.226 µM; the “apparent KD of K4 kissing-loop reporter” value under setting [2] turned out to be 0.197 µM.
For the sequence “UAACUUGCAGUGAUGUUGCAAGAACUGGAUACCAGCAUGGAAACAUGCCCUUGGCAGCCAGAAGGUAUCCUCUGCAAGAGAUACA [Design1]”, the “apparent KD of K4 kissing-loop reporter” value is, setting by setting: (input ligand: FMN 200 uM) 0.318 µM; (input ligand: arginine 13.2 mM) 0.274 µM; (input ligand: none) 0.311 µM; under setting [1], 0.289 µM; under setting [2], 0.292 µM.
On to “UAAGAUUCUGUCUCAUUGAGACAGAAUCAACGAGGACCGGUACGGCCGCCACUCGGGUCCUAGAGUGAUGUUCUAAUAAUAUAAU [AK1 SS Tryptophan A]”, for which the “apparent KD of K4 kissing-loop reporter” value by setting is: (input ligand: FMN 200 uM) 0.283 µM; (input ligand: arginine 13.2 mM) 0.351 µM; (input ligand: none) 0.296 µM; under setting [1], 0.369 µM; under setting [2], 0.176 µM.
On to “UAAUAAUAAUGAUAAUAAUCAAGUGGUGGACGAGGACCGGUACGGCCGCCACUCGAAAAUGCAGUGAUGUUGUAAUACGGAUAAU [Exclusion - Tryptophan A (Freestyle 2)]”, for which the “apparent KD of K4 kissing-loop reporter” value is, setting by setting: (input ligand: FMN 200 uM) 0.0983 µM; (input ligand: arginine 13.2 mM) 0.18 µM; (input ligand: none) 0.133 µM; under setting [1], 0.203 µM; under setting [2], 0.0943 µM.
Take “UAAUGGUAAGUGAUGUUUACCUGGAACGAUACCAGUCGCCAUGAGGACCCUUGGCAGCGUCACACAGCCUUCUAGUUGUGGUCUU [theeternabot_sameState_KL_Theo_A_46]”: the “apparent KD of K4 kissing-loop reporter” value is, setting by setting: (input ligand: FMN 200 uM) 0.418 µM; (input ligand: arginine 13.2 mM) 0.298 µM; (input ligand: none) 0.347 µM; under setting [1], 0.499 µM; under setting [2], 0.353 µM.
In the case of “UACUAUAUUCUGUCGUUUAUAUUAUUUUGUCAGGAUAUCGUUUAUUCGAGAAGGGACACUAUCUAGUGAUGUUAGAUUUUUCUUU [JR_Nu_ExcFMNA_Sub029]”, the “apparent KD of K4 kissing-loop reporter” value was 0.0558 µM (input ligand: FMN 200 uM); 0.13 µM (input ligand: arginine 13.2 mM); 0.0867 µM (input ligand: none); 0.108 µM under setting [1]; 0.0677 µM under setting [2].
For “UACUUAUUUUUUAACUUAAAUUUUUCAGAAGGAGCGUGAUCAUUCACAGGUAGGUCGCUGAACUAGUGAUGUUAGUUUUAAUUUU [JR_Nu_ExcArginiA_Sub024]” the same measures were 0.0629 µM, 0.115 µM, 0.0639 µM, 0.104 µM and 0.0565 µM.
With “UAGCAUUUGCUCGAGUGAUGUUCGAGCGAAGGAGCGCGAGAAAUCGCAGGUAGGUCGCGCUCGAACUAUGAGCGAUCAUUUAUUG [Arg A Ex t2d]”, the “apparent KD of K4 kissing-loop reporter” value is 0.363 µM (input ligand: FMN 200 uM); 0.232 µM (input ligand: arginine 13.2 mM); 0.312 µM (input ligand: none); 0.395 µM under setting [1]; 0.331 µM under setting [2].
Take “UAGUCCUAGUGAUGGUUAUCACGUGGUGGGCGAGGACCGGUACGGCCGCCACUCGACUAUGCAGUGAUGUUGCAAUCCGGACAAU [Exclusion - Tryptophan A (Freestyle 16)]”: the “apparent KD of K4 kissing-loop reporter” value is, setting by setting: (input ligand: FMN 200 uM) 0.319 µM; (input ligand: arginine 13.2 mM) 0.411 µM; (input ligand: none) 0.423 µM; under setting [1], 0.353 µM; under setting [2], 0.116 µM.
For “UAUAAUUCGGCGGCCGCCACUGACCAUAGCCUUCGAUGGCCAGUGAUGUUGGCCUCUGGCUCUAACAGGACCGGGCCGAAUUGUG [Reresoza]” the same measures were 0.211 µM, 0.164 µM, 0.18 µM, 0.138 µM and 0.12 µM.
As for “UAUAGAAACGUCCUAUCAGUAAAAUGGGAAGGAGCGAGGAAGGACUCAGGUAGGUCGCCCAAUAACCUUAGUGAUGUUAAGGAAA [Version 2]”, the “apparent KD of K4 kissing-loop reporter” value (input ligand: FMN 200 uM) came to 0.155 µM; the “apparent KD of K4 kissing-loop reporter” value (input ligand: arginine 13.2 mM) amounted to 0.128 µM; the “apparent KD of K4 kissing-loop reporter” value (input ligand: none) worked out at 0.131 µM; the “apparent KD of K4 kissing-loop reporter” value under setting [1] amounted to 0.112 µM; the “apparent KD of K4 kissing-loop reporter” value under setting [2] is 0.122 µM.
For the sequence “UAUAUAGUGACGGCCGCCACUAUAGUGAUGUUAUUGUUAGAGUGAUGUUUUGUUGUUUAAUUUUGUAGGACCGGGUUAUAUGUUA [tbbtmullin]”, the “apparent KD of K4 kissing-loop reporter” value by setting is: (input ligand: FMN 200 uM) 0.632 µM; (input ligand: arginine 13.2 mM) 0.418 µM; (input ligand: none) 0.504 µM; under setting [1], 0.497 µM; under setting [2], 0.446 µM.
As for “UAUAUAGUGACGGCCGCCACUAUAUUAAUGUUUUUGUUAGAGUGAUGUUUUGUUUUUUAAUUUUAUAGGACCGGGUUAUAUGUUA [xnxmullin]”, the “apparent KD of K4 kissing-loop reporter” value runs as follows: (input ligand: FMN 200 uM) 0.275 µM; (input ligand: arginine 13.2 mM) 0.155 µM; (input ligand: none) 0.253 µM; under setting [1], 0.335 µM; under setting [2], 0.188 µM.
For the sequence “UAUUAAUUGACGGCCGCCACUAUUGUGAUUUAUUUGUUUGAGUGAUGUUUUGAUGUUUGAUUUUGUAGGACCGGGUUAUGUGUUA [zwzcmullin]”, the “apparent KD of K4 kissing-loop reporter” value is, setting by setting: (input ligand: FMN 200 uM) 0.918 µM; (input ligand: arginine 13.2 mM) 0.768 µM; (input ligand: none) 0.954 µM; under setting [1], 0.816 µM; under setting [2], 0.711 µM.
With “UAUUCUAAUGCGGCCGCCACUGGAAGUGAUGUUUCCUCUGGCUAUCAUUUCGGACGGUAUUGUCCCAGGACCGGGCAUCCCUCUC [theeternabot_exclusion_KL_Trp_B_4]”, the “apparent KD of K4 kissing-loop reporter” value reads like this: (input ligand: FMN 200 uM) 0.109 µM; (input ligand: arginine 13.2 mM) 0.101 µM; (input ligand: none) 0.106 µM; under setting [1], 0.104 µM; under setting [2], 0.103 µM.
For “UAUUUAGUGACGGCCGCCACUAUUGUGAUUUAAUUGUUUGAGUGAUGUUUUGAUGUUUGAUUUUGUAGGACCGGGUUAUGUGUUA [tyttmullin]”, the “apparent KD of K4 kissing-loop reporter” value by setting is: (input ligand: FMN 200 uM) 1.02 µM; (input ligand: arginine 13.2 mM) 0.745 µM; (input ligand: none) 0.827 µM; under setting [1], 0.791 µM; under setting [2], 0.749 µM.
Take “UCACAGUCCAAAGGAUAUUGAGUGCGCGUGCGAUUUAAGCUGAAGCCGUAGCUAGUGAUGUUAGCCCAAGAAGGUUGGUAGCCAG [theeternabot_exclusion_KL_FMN_B_16]”: the “apparent KD of K4 kissing-loop reporter” value (input ligand: FMN 200 uM) was 0.136 µM; the “apparent KD of K4 kissing-loop reporter” value (input ligand: arginine 13.2 mM) was found to be 0.128 µM; the “apparent KD of K4 kissing-loop reporter” value (input ligand: none) stood at 0.14 µM; the “apparent KD of K4 kissing-loop reporter” value under setting [1] amounted to 0.193 µM; the “apparent KD of K4 kissing-loop reporter” value under setting [2] stood at 0.115 µM.
